Data as given in publication PMC4466390, “Canonical and Noncanonical Sites Determine NPT2A Binding Selectivity to NHERF1 PDZ1” (PLoS ONE, 2015).

B1: NHERF1 PDZ1 (11–120) [human] / rhodamine-labeled 22-residue carboxy-terminal NPT2A peptide [modified: 5-(and 6)-carboxytetramethylrhodamine (rhodamine label), coupled to the peptidyl resin after synthesis; 5-(and … (parent)
chain 1: LPRLCCLEKGPNGYGFHLHGEKGKLGQYIRLVEPGSPAEKAGLLAGDRLVEVNGENVEKETHQQVVSRIRAALNAVRLLVVDPETDEQLQKLGVQVREELLRAQEAPGQA
chain 2: ELPPATPSPRLALPAHHNATRL

Variants of: B1
Assay: fluorescence polarisation
Conditions: with rhodamine-labeled 22-residue carboxy-terminal NPT2A peptide [modified: 5-(and 6)-carboxytetramethylrhodamine (rhodamine label), labeled NPT2A peptide 1 µM, read at the highest PDZ1 concentration, est. ~120 µM, parent: 0.11, read off a plot

response | Variant
0.1 | chain 1 H17N
0.096 | chain 1 E33D
